Where two headings read alike, the source gives them in different places.
Key:
[1] = target: HSV-1 glycoprotein B construct gBΔ71 (residues 72-904) (Herpes Simplex Virus type 1 (HSV-1)) (UniProt P06437); assay: crystal structure
[2] = target: HSV-1 glycoprotein B construct gBΔ71 (residues 72-904) (Herpes Simplex Virus type 1 (HSV-1)) (UniProt P06437); assay: crystal structure; remark: listed apart in the source

## HSV-1 glycoprotein B construct gBΔ71 (residues 72-904) (from UniProt P06437 72-904) (natural protein)
[1]
  stoichiometry N: 3
[2]
  stoichiometry N: 3
